± gives the uncertainty stated by the source.
Assay: self-splicing fitness, log relative to wild type (ln ratio); higher = more splicing; Tetrahymena group I intron in knt gene, E. coli kanamycin selection, DiMSum; sequences stand for … in CUCUCU…GGAGGGAAAAGUUAUCAGGCAUGCACCUGGUAGCUAGUCUUUAAACCAAUAGAUUGCAUCGGUUUAAAAGGCAAGACCGUCAAAUUGCGGGAAAGGGGUCAACAGCCGUUCAGUACCAAGUCUCAGGGGAAACUUUGAGAUGGCCUUGCAAAGGGUAUGGUAAUAAGCUGACGGACAUGGUCCUAACCACGCAGCCAAGUCCUAAGUCAACAGAUCUUCUGUUGAUAUGGAUGCAGUUCACAGACUAAAUGUCGGUCGGGGAAGAUGUAUUCUUCUCAUAAGAUAUAGUCGGACCUCUCCUUAAUGGGAGCUAGCGGAUGAAGUGAUGCAACACUGGAGCCGCUGGGAACUAAUUUGUAUGCGAAAGUAUAUUGAUUAGUUUUGGAGUACUCGUGGUCG
Summary of the method: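 Colonies from six replicate transformations of E. coli BL21(DE3) were pooled and amplicon-sequenced on an Illumina HiSeq 2500. The library placed an intron with all eight P1ex-region nucleotides randomised inside the knt kanamycin-resistance gene on pET-22b(+), and cells grew overnight at 37°C or 30°C on LB agar with or without 25 μg/mL kanamycin (plus 100 μg/mL carbenicillin, 50 μM IPTG, 0.2% rhamnose). Fitness is the DiMSum error-weighted combination of wild-type-normalised replicate fold changes, kanamycin versus none.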

Sequence	self-splicing fitness (ln) (30 °C)	self-splicing fitness (ln) (37 °C)
UCCGAGCAAUAUUACGAUCU	-3.46 ± 0.35	-2.61 ± 0.39
AAUAAGCAAUAUUACGAGUU	-1.32 ± 0.087	-1.1 ± 0.1
GAUAAGCAAUAUUACGUCUA	-1.18 ± 0.075	-0.275 ± 0.085
UUCAAGCAAUAUUACGCCGU	-2.25 ± 0.2	-1.46 ± 0.19
CAGUAGCAAUAUUACGUCAU	-3.37 ± 0.22	-2.4 ± 0.26
UGCCAGCAAUAUUACGUUGU	-3.21 ± 0.12	-2.86 ± 0.18
CCGCAGCAAUAUUACGCGGC	-4.42 ± 0.42	-2.55 ± 0.29
GGGGAGCAAUAUUACGGAAA		-0.21 ± 0.41
AUGUAGCAAUAUUACGGGUG	-3.85 ± 0.29	-2.54 ± 0.18
UAGGAGCAAUAUUACGGUCC	-3.93 ± 0.37	-0.78 ± 0.26
UGACAGCAAUAUUACGCGCG	-1.15 ± 0.1	-0.132 ± 0.11
UACAAGCAAUAUUACGUUGC	-4.71 ± 0.42	-2.94 ± 0.27
CUCCAGCAAUAUUACGGGGC	-4.13 ± 0.23	-2.56 ± 0.17
CGGUAGCAAUAUUACGGUAC		-1.22 ± 0.42
CGAAAGCAAUAUUACGAUGC	-2.67 ± 0.39	-1.35 ± 0.27
GUUAAGCAAUAUUACGAGAG	-3.24 ± 0.2	-2.26 ± 0.2
AGAUAGCAAUAUUACGCCUG	-1.13 ± 0.12	-0.496 ± 0.13
ACAGAGCAAUAUUACGAGGU	-3.36 ± 0.11	-2.66 ± 0.15
GGAAAGCAAUAUUACGCUGG	-2.2 ± 0.14	-2.81 ± 0.26
UUGCAGCAAUAUUACGGGCA	-1.31 ± 0.13	-0.764 ± 0.14
AAGCAGCAAUAUUACGAUAG	-3.63 ± 0.2	-1.45 ± 0.15

Sequence	self-splicing fitness (ln) (30 °C)	self-splicing fitness (ln) (37 °C)
UGACAGCAAUAUUACGAAGA	-3.28 ± 0.27	-0.756 ± 0.16
GCUCAGCAAUAUUACGUCCG	-1.49 ± 0.14	-1.13 ± 0.18
AUAGAGCAAUAUUACGCUUU	-1.68 ± 0.13	-1.58 ± 0.15
CGGGAGCAAUAUUACGAUAG		-1.97 ± 0.37
CCCGAGCAAUAUUACGUCUU	-3.38 ± 0.18	-2.16 ± 0.19
UGGUAGCAAUAUUACGGCAC		-1.39 ± 0.44
UGGUAGCAAUAUUACGCUAA	-1.37 ± 0.14	-0.667 ± 0.16
UGAAAGCAAUAUUACGAGAC		-1.65 ± 0.38
GCCAAGCAAUAUUACGCGAA	-1.2 ± 0.1	-0.257 ± 0.11
CUUAAGCAAUAUUACGUUAC	-2.2 ± 0.19	-2.67 ± 0.34
UCUUAGCAAUAUUACGUAAA	-3.58 ± 0.29	-2.38 ± 0.25
ACGCAGCAAUAUUACGAUUU	-1.01 ± 0.081	-0.413 ± 0.1
UCUAAGCAAUAUUACGAUCA	-0.876 ± 0.21	-0.379 ± 0.14
AGUCAGCAAUAUUACGUGUG	-2.26 ± 0.099	-1.57 ± 0.11
CCCAAGCAAUAUUACGCUCA	-3.73 ± 0.27	-3.23 ± 0.25
UGCUAGCAAUAUUACGGUUG	-0.971 ± 0.06	-0.318 ± 0.082
GAUGAGCAAUAUUACGCGGA	-2.72 ± 0.12	-2.15 ± 0.11
GGAUAGCAAUAUUACGAGGG	-3.29 ± 0.28	-2.33 ± 0.27
UUUAAGCAAUAUUACGGAUU	-2.78 ± 0.2	-1.07 ± 0.2
GAUGAGCAAUAUUACGACGU	-1.09 ± 0.094	-0.283 ± 0.11
ACGUAGCAAUAUUACGACCG	-0.218 ± 0.1	0.0549 ± 0.12

Sequence	self-splicing fitness (ln) (30 °C)	self-splicing fitness (ln) (37 °C)
AGGUAGCAAUAUUACGCAUC	-3.221 ± 0.027	-1.72 ± 0.038
CUUCAGCAAUAUUACGUUUG	-1.87 ± 0.082	-1.24 ± 0.091
CUUAAGCAAUAUUACGUAUU	-4.4 ± 0.31	-2.25 ± 0.23
GCAAAGCAAUAUUACGGACC	-0.898 ± 0.092	0.746 ± 0.13
AAAGAGCAAUAUUACGGAGA	-2.99 ± 0.22	-1.98 ± 0.21
GCCGAGCAAUAUUACGCCUC	-2.91 ± 0.42	-1.88 ± 0.4
ACGCAGCAAUAUUACGUGCA	-1.58 ± 0.076	-0.0655 ± 0.083
GUAAAGCAAUAUUACGUUGU	-3.6 ± 0.17	-2.13 ± 0.19
GGGUAGCAAUAUUACGUGCA	-0.359 ± 0.12	-0.483 ± 0.14
CUGCAGCAAUAUUACGUCUG	-2.34 ± 0.16	-0.738 ± 0.17
GCGAAGCAAUAUUACGCUAG	-3.28 ± 0.26	-0.964 ± 0.32
AGAGAGCAAUAUUACGUCAG	-0.659 ± 0.45	
UCGGAGCAAUAUUACGUGCU		-2.66 ± 0.27
GGUCAGCAAUAUUACGAAUC	-0.132 ± 0.14	0.365 ± 0.13
GCAGAGCAAUAUUACGUUGG	-2.91 ± 0.18	-1.09 ± 0.19
UAAAAGCAAUAUUACGCCGA	-1.16 ± 0.12	-0.318 ± 0.14
AGUUAGCAAUAUUACGACGU	0.261 ± 0.07	0.647 ± 0.083
UCCCAGCAAUAUUACGUCGC	-3.47 ± 0.27	-2.4 ± 0.22
GCGUAGCAAUAUUACGGAGC	-4.23 ± 0.28	-3.03 ± 0.35
AGUAAGCAAUAUUACGACUU	-0.394 ± 0.068	-0.58 ± 0.097

— the supplement of paper PMC7877785
